# Assay results reported in the DeepSol protein solubility set.
# Test: soluble on expression in E. coli; label from the status in PepcDB or PDB records
row,Sequence,soluble on expression in E. coli
1,MGSDKIHHHHHHMSLLDKLRELGISENLIKEIEKFRSQYPVDKEYESRIPVPTQFYYGSDVWEQAITAVLCGENLLLVGEKATGKNLFAENLAGVFNRPRWDVSFHVNMDAASLIGTDTFSAGEVTFRPGPVYTAAKTGGFAVLDEINMAKSEAMAVLHATLDFRRTIDVPGYDRLSLHPATRFIATMNYGYAGTKELNEALVSRFAVIRMPMISKESLVKLIKEHYPTIREAGANELAEVFLELHTKCKNGEISSKALDLRGLIGSIGMMEKGLNIYAALDMGITNKSFDEYEQTLIRDTIRARISRKMSREQLFC,not soluble
2,MGSDKIHHHHHHMSPDVYLQIFETRRPQLLRLAYRMLGSHAEAEDVVQEAWIRWQAADQAQIAIPAAWLNRVVSRLCLDLMRSARHRRESYIGPWLPEPLIEEEDADHRPDNLTLSLMMALERLSPLERAAFLLHDVFGQSFDEVALALDRSPSAARQLAVRARAHVHIDRPRYKVEREAAEGLTRAFFEACKTGDAAVLSGLLAEDAVLHSDGGGKVYNLLNVIVGAQKLLRMFTSLSRKRGDEMEFVQFTLIDALPGYVWRMGDQIQTTALEVEDGRITRVYTTRNPDKLTRIRLN,not soluble
3,MGSDKIHHHHHHMSQLLRKPERAEISKGVTLVHDVTADNASLEYVSFKALDLSQGATYSETLENKECCIVVVTGKVHVTDHEVTFENIGTRESVFEKKPTDSVYVSNNQTFSIEAVTGARVALCYAPSKNQLPTKLIKAEDNGVEHRGKGNNQRMVHNILPDSDPSANSLLVVEVFTESGNWSSYPPHKHDRDLLPEESLLEETYYHEVNPKQGFVFQRVYTDDRSLDETMTVENENMVIVPKGYHPVGVPEGYASYYLNVMAGPKRIWKFFNDPAHEWIIE,not soluble
4,MGSDKIHHHHHHMSRKSNAFSGSAAGLQHPDGRNDSGQKQQMSSPAALLQSDTLGSRLTSRGDLTSFFMELTAEIGADSYMLVAIVHDQDRNDARIVSSNWIFDAIELIGKRLIASLAQGALTVAPGIRPRPLVAARAPDADGLVSGEEARLLDVLGHAEIYSLRLNVGRQRLFALFSAATSGQIDQPALMKAQLKCCYALSHIPQLIAAAAMQDPLSDRERECLFWVSEGKTTDEVAVILGVSSNTVNSYITHAIQKFAASNRAMAIATAIRSGII,not soluble
5,MGSDKIHHHHHHMSRVETIINELSLIASNPRKAMEDYKKETGKGAVGIMPVYAPEELVHAAGFLPMGIWGGQKSISKARTYLPPFACSIMQSVMEMQLEGVYDDLEAVIFSVPCDTLKCLSQKWKGKSPVIVFTHPQNRKLEAANKFLVEEFKLVREKLEKILNVKITDEAINNSIEVYNENRKVMREFSDIAGQYSKTISAAARHAVIKARFFMEKSKHTAMVRELINELKAMPAEECGKKVVLTGIMAEPNEVLDILTENGFTVVADDLAQESRQFRLDVPAGTDPLYRLAEWWQQFDGCALATNVKKPRGQMLMDMVKKYDADAVIVCMMKFCDPEEFDYPIYYSQFEEAGIKSLYIEIDQESTSFEQIKTRVQSFGEML,not soluble
6,MGSDKIHHHHHHMSSEEDYFDELEYDLADEVNEEKEDIQTKKLTTVNCQTEKFNPFEILPESIELFRTLALISPDRLSLSETAQILPKIVDLKRILQQQEIDFIKLLPFFNEIIPLIKSNIKLMHNFLISLYSRRFPELSSLIPSPLQYSKVISILENENYSKNESDELFFHLENKAKLTREQILVLTMSMKTSFKNKEPLDIKTRTQILEANSILENLWKLQEDIGQYIASKISIIAPNVCFLVGPEIAAQLIAHAGGVLEFSRIPSCNIASIGKNKHLSHELHTLESGVRQEGYLFASDMIQKFPVSVHKQMLRMLCAKVSLAARVDAGQKNGDRNTVLAHKWKAELSKKARKLSEAPSISETKALPIPEDQPKKKRAGRKFRKYKEKFRLSHVRQLQNRMEFGKQEQTVLDSYGEEVGLGMSNTSLQQAVGATSGSRRSAGNQAKLTKVMKHRISEANQQADEFLISLGHNTEQPNLSPEMVQMHKKQHTNPEEETNWFSGHG,not soluble
7,MGSDKIHHHHHHMSSHLAHGMGTEPVEPDWPPLTEAEVADVVGPSRVVWRSPRPLSAAAVVERGGRRLFVKRHHLSVRTPEGLAEEHAFLRHLRERGAPVVEVLDVATRQEWVYEVHSAGLGTDLYRDDLSWSPFRSSTHARAAGAALARLHLAADGFEAPRRIPQPLVASFTIFAADDPGTALERYVAERPALAGALADHPWRADTRRVLLPLFERLAPHLPLLEPLWTHNDWHASNLLWDASGEVSTVLDFGMSDRTTAVHDLATAIERNAVQWLQPGFPVREQDVDALLDGYQSVRPLTVSESAALPELLPLVHAEFALSEMGYFHGITGSAENTRLAYAYLVDHAEWFTGDAGSHLVDRVRHRAAAAPKPPPAGRPLSDASS,not soluble
8,MGSDKIHHHHHHMSSSGKVIVVGAGIVGLATAWHLQEHGFEVSVLDRDGVAAGSSWGNAGWLAPAKTIPLSEPGLWTYGPKELFNPVSPMHMPLRVDPKLWLFLAQFMAQAFQRKWDSTMADLTEIDKVALEAFDELSIGGVEGLTHEGPFVIGFEEERQSAGFRKEIDGVSRHGQKVEMSRLENPQELAPMLNEQIQVAYRLEGQRFIEPGPYVQSLADAVVKRGGVIRAGAEVVHVAKGDRPAVILADGSREEADKVVVATGAWLPGLTREYGVKTLVQAGRGYSFSVATDIPAKHSVYLPHHRMACTPYEGRFRIAGTMEFRGPDEPFQQGRVDAIVSQAKKVMRGIDFNDRQDEWVGSRPVTPDGRPLIGQTKAENIYVAGGHGMWGVVLGPATGKYLAELMATGNTNPIIKPFDPLR,not soluble
9,MGSDKIHHHHHHMSTIIQNTLAPKVQNQLIHHLPALEQAELLSQAKLVQLNFADLLCQPGESYQYVYFPLTAFISLIAKLPKHPALEMGLIGYEGMLGATTLLSTRQVPSEAIIQGSGKAWRIPIATFEDLLAQSSSLRQILETYLYQLLCQLSQNAVCAHFHSVESRLARWLLMSHDRIQTNELFLTHQFLSDMLGVRRSSITEAAGELQASGCISYNRGRLYILDRQGLLARCCSCYHLMRT,not soluble
10,MGSDKIHHHHHHMSTTEIVKEAESRHDFALIANWIQPQSKVLDLGCGNGSLLSFLREKLGVKGYGVDKDDDNVLACIGHGVNVIQMDLEAGLAGFDSLSFDYVILSQTLQAMVNTEGVLREMLRVGKQGIITFPNFGYWRHRIQLMAGHMPVSDNIPHQWYNTPNLHLCTIDDFEALCDKMNIRITDRIVINEGNTVSFMPNLFGSLAIYRFEQAAWPVSY,not soluble
11,MGSDKIHHHHHHMSVFLRNAWYMACWSHEVPEGGFLARRLLDKPWVIWRKADGTPVIMADRCPHRFVPLSRGQRDGDMMRCGYHGLAFSSSGGCVHNPFTDEALPLARVEVLPVVEKHTGLWFWPGDADRADPALIPDFGFLDVERPLHRGHLKMDAGYELVTDNLMDLSHAEFIHRDSFGVNGSLLTCGQHEVVQDEGGAIWNNWTMPDSEPPSWAVAMLPEGARTDQWLHMRWNAPSCLALFLGLARSGTDRKDMVVPPMADPHILTPETVTSTHYFYTHEPTPEAHALLEKAFLEEDHPMLHAQQEAMGSADFWDLRPVVLPSDAGAIRVRRRMMQLRRAEAGLEEEAAA,not soluble
12,MGSDKIHHHHHHMSVHSEVLHALLKDPFIQKLIDAEPVFWANSGKKEGPLPRADEWATEIAEAEKRMQRFAPYIAEVFPETKGAKGIIESPLFEVQHMKGKLEAAYQQPFPGRWLLKCDHELPISGSIKARGGIYEVLKYAENLALQEGMLQETDDYRILQEERFTGFFSRYSIAVGSTGNLGLSIGIIGAALGFRVTVHMSADAKQWKKDLLRQKGVTVMEYETDYSEAVNEGRRQAEQDPFCYFIDDEHSRQLFLGYAVAASRLKTQLDCMNIKPSLETPLFVYLPCGVGGGPGGVAFGLKLLYGDDVHVFFAEPTHSPCMLLGLYSGLHEKISVQDIGLDNQTAADGLAVGRPSGFVGKLIEPLLSGCYTVEDNTLYTLLHMLAVSEDKYLEPSALAGMFGPVQLFSTEEGRRYAQKYKMEHAVHVVWGTGGSMVPKDEMAAYNRIGADLLKKRNGK,not soluble
13,MGSDKIHHHHHHMSVKILFKNATVFPITSRPFKGDVLVSNGKVEKVGENIEDPDAEIVDLTGKFLFPGFVDAHSHIGLFEEGVGYYYSDGNEATDPVTPHVKALDGFNPQDPAIERALAGGVTSVMIVPGSANPVGGQGSVIKFRSIIVEECIVKDPAGLKMAFGENPKRVYGERKQTPSTRMGTAGVIRDYFTKVKNYMKKKELAQKEGKEFTETDLKMEVGEMVLRKKIPARMHAHRADDILTAIRIAEEFGFNLVIEHGTEAYKISKVLAEKKIPVVVGPLLTFRTKLELKDLTMETIAKLLKDGVLIALMCDHPVIPLEFATVQAATAMRYGAKEEDLLKILTVNPAKILGLEDRIGSIEPGKDADLVVWSGHPFDMKSVVERVYIDGVEVFRR,not soluble
14,MGSDKIHHHHHHMSVVNKIIGVCRFSYLGLGGFRINEAGAEEAAKALYAADRMTLRFAYFETICLPSLAAQTDSDFTFVALIADTMPLPFRQRLKRLTETYPFLRIAVLESTGPYNSTRRAFSRGLDGQETDFITGFRLDDDDAVSVDYIARTREAADTLITLGWATKDDPAAVCFHRGIYWDMKRPDAPFWDYSEIQPLGLASAMVHHRDSRQNIYRWNHRKLASKVRCWTDPSDVMFLRTLHDHNDSGRVMPRDAEQIPDEQARRLLKDRFGLNPKRLLSTMDRVHGGTDAARQWAAETREDPFGKDGDA,not soluble
15,MGSDKIHHHHHHMSYDEAFKTLLISSNAKLNLELNHLVIKQDENIAKLFLKDINIIVLESLQISISSALFNAFAKYKIILLTCDETHSINGVFTPFLGHFQSAKIAKEQMNVSAQKKAILWQKIIKNKILNQAFILKKHNKIEQSNELINLAKKVSLNDSKNIEAVAAALYFKTLFGTSFSRDELCFENSALNYGYAIIRACIIRAVCISGLLPWLGIKHDNIYNSFALCDDLIEVFRASVDDCVLKLKGESEFLSKDDKRALIGNLQSKINFDGQNYPLNRAINHYVANFKNALLYEDELKIVKFDD,not soluble
16,MGSDKIHHHHHHMSYLTEKLREEKVFKDPVHGYVHVSDKIIWDLIATKEFQRLRRIHQLGTTSLTFHGAEHSRFNHSLGVYEIVRQIIDVTFANEPQLDPEERMVALCAALLHDLGHGPFSHAFEKVFGTDHESYTQEIIIGDTEVNKILMRAGEEFPLKVAAIIKKNYPNQTLVKLISSQIDADRMDYLLRDAYYTGVSYGKFDLERILRVLRPSPDGNGVIVKYSGMHAVEDYIMSRYQMYQQVYFHPVSRSGEVLLWKILERAKKLYCAGYEFQATPIQVLPFFLNEVSLKDYIVLDDIVLMYYFSIWQEEEDPILSDLCSRFLNRRLLRYINYDPKEDAELYAELKGLLEKADIDPSYYLVIDSSSDLPYDYYLPGVGSGKDPIKLLMGNGELRELSTESPVVEAIGRERRTDIKLYYPLDFIESGHVEEAITERMIALIHAHSLKEK,not soluble
17,MGSDKIHHHHHHMTAIRVTITQVKGSAPRDTGTSMLVFADRIEGTIGGGALEWEAMRLARDMLRNGTSVTTHTFPLGPALGQCCGGVVKLELQAATQWKGVEKTPIWIWGAGHVGRAIIHTLSPFSALDLSWIDTAADRFPADIPNDTHRLIATDPPRLMPHAPPNAHHLIATYSHDIDLALCHAALTHGFASAGVIGSATKWARFRKRLGQMGHSGAQISRIMCPIGDPGLGKHPQAIAIGVAARLLGEQMLQESAQHLKDVDHGGT,not soluble
18,MGSDKIHHHHHHMTAPTAQSMQAQPIHARLMNGEVLSQDDATAFMREVMSGDMSGVRMAAALAALRVRGETPEEIAGFAQAMRESAVTVKVRPRDVLMDVVGTGGDGAHTFNISTTTAFVLAGAGVPIAKHGNRAASSRAGSADVLEALGVNLDASPEVIQEAIDTLGVGFMFARNYHPALRHAAPVRSDLAARTVFNILGPLSNPAGATHLVVGVFRADLTRTLAEALRHLGAKGATVVYGDGLDEFTVCGPNTVSGLRDGEIIDRTMHPEEFGVDLHPKTAIVGGSPAENAEITHALLTGGGTPAQKDIVALNAGAALRTAGRVGTIREGVEQAREVMKGGQGWEMLQKYGALTKR,not soluble
